Molecular target: the molecule itself
Assay: SEC; 10-kDa cut-off royal jelly applied to HiLoad 26/60 Superdex 200 p.g.; 150 mM NaCl, 20 mM phosphate buffer pH 7.5; molecular weight calibrated with standard proteins; peak resolved by 15% SDS-PAGE

B1: major royal jelly protein 1 (natural protein, Apis mellifera, UniProt O18330 20-432, looked up)
chain: NILRGESLNKSLPILHEWKFFDYDFGSDERRQDAILSGEYDYKNNYPSDIDQWHDKIFVTMLRYNGVPSSLNVISKKVGDGGPLLQPYPDWSFAKYDDCSGIVSASKLAIDKCDRLWVLDSGLVNNTQPMCSPKLLTFDLTTSQLLKQVEIPHDVAVNATTGKGRLSSLAVQSLDCNTNSDTMVYIADEKGEGLIVYHNSDDSFHRLTSNTFDYDPKFTKMTIDGESYTAQDGISGMALSPMTNNLYYSPVASTSLYYVNTEQFRTSDYQQNDIHYEGVQNILDTQSSAKVVSKSGVLFFGLVGDSALGCWNEHRTLERHNIRTVAQSDETLQMIASMKIKEALPHVPIFDRYINREYILVLSNKMQKMVNNDFNFDDVNFRIMNANVNELILNTRCENPDNDRTPFKISIHL
notes: Major royal jelly protein 1 (MRJP1), Apis mellifera; 55 kDa on SDS-PAGE; Native protein isolated from royal jelly and identified by MALDI-TOF/MS; The introduction calls MRJPs glycoproteins; also called MRJP1; major RJ protein 1; source: purified from royal jelly (10-kDa cut-off RJ, size-exclusion chromatography on Superdex 200)
In the case of B1, the “stoichiometry N” value is reported as ~5.

Reference: publication PMC4140749, “Identification of a Novel Hypocholesterolemic Protein, Major Royal Jelly Protein 1, Derived from Royal Jelly” (PLoS ONE, 2014)
